No end group written: not given here.
Biological target: HIV-1 IIIB transmembrane glycoprotein gp41 (HIV-1 IIIB)
Test: cell-based or functional assay

B1: T-1249 peptide (peptide)
peptide: WQEWEQKITALLEQAQIQQEKNEYELQKLDKWASLWEWF
modifications: not fully specified
IC50, inhibition of HIV-1 IIIB infection of MT4-Luc cells (HIV LTR-luciferase reporter assay): ~3.3 nM

Source: US20050136061A1 (published 2005)
